The record followed here is publication PMC2174347 (The Journal of Cell Biology, 2000).

For this assay, the target named is wild-type ezrin 1-586 (UniProt P15311 1-586). Description: solid phase assay.

B1: ezrin 1-333 K63N, K64N, K253N, K254N, K262N, and K263N (domain or fragment, UniProt P15311 1-333, looked up)
chain: MPKPINVRVTTMDAELEFAIQPNTTGKQLFDQVVKTIGLREVWYFGLHYVDNKGFPTWLKLDNNVSAQEVRKENPLQFKFRAKFYPEDVAEELIQDITQKLFFLQVKEGILSDEIYCPPETAVLLGSYAVQAKFGDYNKEVHKSGYLSSERLIPQRVMDQHKLTRDQWEDRIQVWHAEHRGMLKDNAMLEYLKIAQDLEMYGINYFEIKNKKGTDLWLGVDALGLNIYEKDDKLTPKIGFPWSEIRNISFNDNNFVIKPIDNNAPDFVFYAPRLRINKRILQLCMGNHELYMRRRKPDTIEVQQMKAQAREEKHQKQLERQQLETEKKRRETV
For the molecule B1, the binding result is given as “binds”.
